From article doi:10.1101/2024.04.23.590744 (bioRxiv, 2024)
Where a chain is given by its changes, count along the chain named. Numbers in names are those of the source. Where two headings read alike, the source gives them in different places. One block for each molecule: values may come before it.

Experiments:
Assay in all cases: SEC-MALS
[1] = target: human LETM1 F-EF-hand domain, residues 643-699, D676K/N678K (human) (UniProt O95202)
[2] = target: human LETM1 F-EF-hand domain, residues 643-699, D676K/N678K (human) (UniProt O95202); remark: listed apart in the source
SEC-MALS [3] = target: the molecule itself
SEC-MALS [4] = target: the molecule itself; remark: listed apart in the source

- stoichiometry N [1]: 2
- stoichiometry N [2]: 2
Molecule: human LETM1 F-EF-hand domain, residues 643-699, D676K/N678K (from UniProt O95202-1 643-699) (domain or fragment)

B1: human LETM1 F-EF-hand domain, residues 643-699, wild type (domain or fragment, UniProt O95202-1 643-699, looked up)
chain: TGENVISVAELINAMKQVKHIPESKLTSLAAALDENKDGKVNIDDLVKVIELVDKED
- stoichiometry N (SEC-MALS [3]): ~2

B2: human LETM1 F-EF-hand domain, residues 643-699, D676A/N678A (domain or fragment, UniProt O95202-1 643-699, looked up)
chain: B1 chain with D34A, N36A
- stoichiometry N (SEC-MALS [4]): 2

B3: human LETM1 F-EF-hand domain, residues 643-699, D687E (domain or fragment, UniProt O95202-1 643-699, looked up)
chain: B1 chain with D45E
- stoichiometry N (SEC-MALS [3]): 2

B4: human LETM1 F-EF-hand domain, residues 643-699, D686A/D687A (domain or fragment, UniProt O95202-1 643-699, looked up)
chain: B1 chain with D44A, D45A
- stoichiometry N (SEC-MALS [4]): 2
